Measured values: US20210139582A1 (published 2021)
Where a chain is given by its changes, count along the chain named. In names and notes the source's numbering stands. One block for each binder: values may come before it.

Assays:
[1] = target: T1, His-tagged soluble mouse FcRn (recombinant, insect cell produced) (mouse, UniProt Q61559 22-290); experiment: method not stated; neutral pH
[2] = target: T2, C-terminus biotinylated monomeric human CD32a^H (FcγRIIa, histidine-131 variant), recombinant (human, UniProt P12318 34-218, limits assumed, C-terminus biotinylated (site-specific)); experiment: SPR, estimated steady state KD, monomeric IgG, pH 7.4
T2 construct: Captured on neutravidin (ELISA plates or CM5 chips); Bought reagent; also called CD32a-H131
T2 sequence (looked up): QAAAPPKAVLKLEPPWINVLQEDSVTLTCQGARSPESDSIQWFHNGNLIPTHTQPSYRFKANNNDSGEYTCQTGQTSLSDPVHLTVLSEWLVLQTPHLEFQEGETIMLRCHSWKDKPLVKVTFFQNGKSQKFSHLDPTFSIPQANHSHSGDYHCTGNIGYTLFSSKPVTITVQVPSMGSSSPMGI

[3] = target: T1, His-tagged soluble mouse FcRn …; experiment: method not stated; acidic pH

T1 sequence (Q61559 22-290): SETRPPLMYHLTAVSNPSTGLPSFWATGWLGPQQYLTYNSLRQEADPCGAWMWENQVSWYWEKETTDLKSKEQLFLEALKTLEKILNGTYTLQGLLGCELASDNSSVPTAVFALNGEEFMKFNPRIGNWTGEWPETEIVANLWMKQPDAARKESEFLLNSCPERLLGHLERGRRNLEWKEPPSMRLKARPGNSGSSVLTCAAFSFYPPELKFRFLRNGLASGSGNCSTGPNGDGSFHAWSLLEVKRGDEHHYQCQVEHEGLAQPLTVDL

Kd [1]: 0.0074 µM | Kd [2]: 2.8 µM | Kd [3]: 0.0012 µM
B1: anti-NIP hIgG1-M252Y/S254T/T256E/H433K/N434F (hIgG1^MST/HN) (antibody)
chain: ASTKGPSVFPLAPSSKSTSGGTAALGCLVKDYFPEPVTVSWNSGALTSGVHTFPAVLQSSGLYSLSSVVTVPSSSLGTQTYICNVNHKPSNTKVDKKVEPKSCDKTHTCPPCPAPELLGGPSVFLFPPKPKDTLYITREPEVTCVVVDVSHEDPEVKFNWYVDGVEVHNAKTKPREEQYNSTYRVVSVLTVLHQDWLNGKEYKCKVSNKALPAPIEKTISKAKGQPREPQVYTLPPSRDELTKNQVSLTCLVKGFYPSDIAVEWESNGQPENNYKTTPPVLDSDGSFFLYSKLTVDKSRWQQGNVFSCSVMHEALKFHYTQKSLSLSPGK

Kd [2]: 4.8 µM
B2: anti-NIP hIgG1-I253A/H310A/H435A (hIgG1^IHH) (antibody)
chain: B1 chain with Y135M, I136A, T137S, E139T, H193A, K316H, F317N, H318A
